Assay results as given in patent publication US12698507B2, “Methods and compositions for conferring and/or enhancing herbicide tolerance using protoporphyrinogen IX oxidase of various cyanobacteria or variant thereof” (FarmHannong Co., Ltd., priority 2019, dated 2026).

B1: CyPPO19 A167C + F360M: variant of CyPPO19 PPO protein (SEQ ID NO: 1) (protein)
chain: MSEVDVAIVGGGLSGLSLAWRLQQSAPQYSVVLLEASDRLGGNITTQTAEGFVWELGPNSFAPTPALLQLIAEVGLQSELIRGDRHLPRYIYWRGQLYPLQPTRPLALATSNLLSPWGKVRAALGALGFVPPYLGSGDESVNSFFRRHLGQEVAERLVAPFVSGVYCGDPQQLSAAAAFRRIAQLEKLGGGLIAGALHLRRQQAPKPKPPTSVQMRPGELGSFKEGLAALPRAIAQQLKAPIHLQTPVQEITPDPKGGYLLRSGEQTWRARSVVLATPAYQTAELVAPFQPAIARVLATIPYPTVACVVLAYPAGLGRSVRPGFGVLIPRSQGIRTLGTIWSSCLFPQRTPAGWQVFTSMIGGATDPDLASLSEEAIVQQVQQDLNRLLDLPAAKARLLGMKVWRRAIPQYMVGYPEQWQQVTHALSQTPGLFLCSNYAEGVALGDRVEHGNRTAAAVAAYLSGGQP
modifications: Synthetic_PPO of Thermosynechococcus elongatus PKUAC-SCTE542 (comprising GenBank No. CP032152.1)
B2: CyPPO19 A167C + F360L: variant of CyPPO19 PPO protein (SEQ ID NO: 1) (protein)
chain: MSEVDVAIVGGGLSGLSLAWRLQQSAPQYSVVLLEASDRLGGNITTQTAEGFVWELGPNSFAPTPALLQLIAEVGLQSELIRGDRHLPRYIYWRGQLYPLQPTRPLALATSNLLSPWGKVRAALGALGFVPPYLGSGDESVNSFFRRHLGQEVAERLVAPFVSGVYCGDPQQLSAAAAFRRIAQLEKLGGGLIAGALHLRRQQAPKPKPPTSVQMRPGELGSFKEGLAALPRAIAQQLKAPIHLQTPVQEITPDPKGGYLLRSGEQTWRARSVVLATPAYQTAELVAPFQPAIARVLATIPYPTVACVVLAYPAGLGRSVRPGFGVLIPRSQGIRTLGTIWSSCLFPQRTPAGWQVFTSLIGGATDPDLASLSEEAIVQQVQQDLNRLLDLPAAKARLLGMKVWRRAIPQYMVGYPEQWQQVTHALSQTPGLFLCSNYAEGVALGDRVEHGNRTAAAVAAYLSGGQP
modifications: Synthetic_PPO of Thermosynechococcus elongatus PKUAC-SCTE542 (comprising GenBank No. CP032152.1)
B3: CyPPO19 V305M + F360I: variant of CyPPO19 PPO protein (SEQ ID NO: 1) (protein)
chain: MSEVDVAIVGGGLSGLSLAWRLQQSAPQYSVVLLEASDRLGGNITTQTAEGFVWELGPNSFAPTPALLQLIAEVGLQSELIRGDRHLPRYIYWRGQLYPLQPTRPLALATSNLLSPWGKVRAALGALGFVPPYLGSGDESVNSFFRRHLGQEVAERLVAPFVSGVYAGDPQQLSAAAAFRRIAQLEKLGGGLIAGALHLRRQQAPKPKPPTSVQMRPGELGSFKEGLAALPRAIAQQLKAPIHLQTPVQEITPDPKGGYLLRSGEQTWRARSVVLATPAYQTAELVAPFQPAIARVLATIPYPTMACVVLAYPAGLGRSVRPGFGVLIPRSQGIRTLGTIWSSCLFPQRTPAGWQVFTSIIGGATDPDLASLSEEAIVQQVQQDLNRLLDLPAAKARLLGMKVWRRAIPQYMVGYPEQWQQVTHALSQTPGLFLCSNYAEGVALGDRVEHGNRTAAAVAAYLSGGQP
modifications: Synthetic_PPO of Thermosynechococcus elongatus PKUAC-SCTE542 (comprising GenBank No. CP032152.1)
B4: CyPPO19 A167C + F360V: variant of CyPPO19 PPO protein (SEQ ID NO: 1) (protein)
chain: MSEVDVAIVGGGLSGLSLAWRLQQSAPQYSVVLLEASDRLGGNITTQTAEGFVWELGPNSFAPTPALLQLIAEVGLQSELIRGDRHLPRYIYWRGQLYPLQPTRPLALATSNLLSPWGKVRAALGALGFVPPYLGSGDESVNSFFRRHLGQEVAERLVAPFVSGVYCGDPQQLSAAAAFRRIAQLEKLGGGLIAGALHLRRQQAPKPKPPTSVQMRPGELGSFKEGLAALPRAIAQQLKAPIHLQTPVQEITPDPKGGYLLRSGEQTWRARSVVLATPAYQTAELVAPFQPAIARVLATIPYPTVACVVLAYPAGLGRSVRPGFGVLIPRSQGIRTLGTIWSSCLFPQRTPAGWQVFTSVIGGATDPDLASLSEEAIVQQVQQDLNRLLDLPAAKARLLGMKVWRRAIPQYMVGYPEQWQQVTHALSQTPGLFLCSNYAEGVALGDRVEHGNRTAAAVAAYLSGGQP
modifications: Synthetic_PPO of Thermosynechococcus elongatus PKUAC-SCTE542 (comprising GenBank No. CP032152.1)

system: PPO-deficient BT3 E. coli (ΔPPO); assay: PPO-inhibiting herbicide tolerance test of PPO variants in E. coli (growth on herbicide-containing LB agar); assay type: cell-based; details: CyPPO19 variants in BT3 (ΔPPO) E. coli; LB agar with 0 to 2,000 μM herbicide, 37° C., dark, 16-20 hours
Procedure, shortened: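 Transformants were grown to OD600 0.5–1, adjusted to OD600=0.5 and spotted as 10-fold dilutions on LB agar with ampicillin (100 μg/mL) and 0 to 2,000 μM herbicide. Plates were kept at 37° C in the dark for 16-20 hours; growth was scored relative to wild type, one '+' per 10-fold resistance.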

Molecule | tolerance level relative to wild type, Carfentrazone | tolerance level relative to wild type, Flumioxazin | tolerance level relative to wild type, Fomesafen | tolerance level relative to wild type, Oxyfluorfen | tolerance level relative to wild type, Saflufenacil | tolerance level relative to wild type, Sulfentrazone | tolerance level relative to wild type, Tiafenacil
B1 | + (‘+’ per each 10-fold resistance) | ++++ (‘+’ per each 10-fold resistance) | + (‘+’ per each 10-fold resistance) | ++ (‘+’ per each 10-fold resistance) | ++++ (‘+’ per each 10-fold resistance) | + (‘+’ per each 10-fold resistance) | ++++ (‘+’ per each 10-fold resistance)
B2 | + (‘+’ per each 10-fold resistance) | +++ (‘+’ per each 10-fold resistance) | + (‘+’ per each 10-fold resistance) | + (‘+’ per each 10-fold resistance) | +++ (‘+’ per each 10-fold resistance) | + (‘+’ per each 10-fold resistance) | +++ (‘+’ per each 10-fold resistance)
B3 | + (‘+’ per each 10-fold resistance) | ++++ (‘+’ per each 10-fold resistance) | + (‘+’ per each 10-fold resistance) | + (‘+’ per each 10-fold resistance) | ++++ (‘+’ per each 10-fold resistance) | ++ (‘+’ per each 10-fold resistance) | ++++ (‘+’ per each 10-fold resistance)
B4 | + (‘+’ per each 10-fold resistance) | +++ (‘+’ per each 10-fold resistance) | + (‘+’ per each 10-fold resistance) | + (‘+’ per each 10-fold resistance) | +++ (‘+’ per each 10-fold resistance) | + (‘+’ per each 10-fold resistance) | ++++ (‘+’ per each 10-fold resistance)
